{"source": "paper PMC5620043", "about": "“A general mechanism of ribosome dimerization revealed by single-particle cryo-electron microscopy” (Nature Communications, 2017)", "proteins": {"B1": {"name": "HPF^long from L. lactis with N-terminal Strep-tag (natural protein, UniProt A2RIX0 1-185, looked up)", "chain": "MIKFNIRGENVEVTDAIRAYVEDKIGKLDKYFNDGHEVTAYVNLKVYTEKRAKVEVTLPAKNVTLRAEDTSQDMYSSIDFVEEKLERQIRKYKTRMNRKPRNAVPTGQVFGDEFAPLDTTDEVAEDHVDIVRTKHVALKPMDAEEAVLQMDMLGHDFYVFTDADSNGTHVVYRRTDGRYGLIETE", "notes": "HPF^long of Lactococcus lactis, 185 residues, calculated monomer mass 21.3 kDa; also called purified HPF^long; source: overexpressed in L. lactis NZ9000, purified on a Strep-tactin Sepharose column"}}, "biological_target": "the molecule itself", "assay": "SEC-MALS; SEC-MALLS, Superdex 200 10/300, 100 mM Tris-HCl, 150 mM NaCl, pH 8.0; protein concentrated to about 4 mg/ml; three batches, two with 10% glycerol"}
{"protein": "B1", "values": [{"measurement": "stoichiometry N", "result": 2}]}
